Test results from patent publication US20100015637A1 (AbbVie / Abbott, published 2010).
Values belong to the binder of their own block, whether it stands above or below them.

What was measured:
[1] = target: recombinant human PlGF-1 (comprising amino acids 1-131) expressed in E. coli (R&D Systems) (human) (UniProt P49763); assay: … sandwich, capture MAb255, detection pAb264; antigen 0 pg/mL (blank)
[2] = target: T1, CHO human PlGF-1 comprising amino acids 1-137 (human PlGF-1-His (1-131), CHO 6305) (human, UniProt P49763 19-221, N-glycans at N21 (completely glycosylated) and N89 (partially glycosylated)); assay: … sandwich, capture MAb826, detection pAb264; antigen 750 pg/mL
T1 construct: Mature human PlGF-1 with 6xHis tag (137 amino acids); also called CHO (1-137)
T1 sequence: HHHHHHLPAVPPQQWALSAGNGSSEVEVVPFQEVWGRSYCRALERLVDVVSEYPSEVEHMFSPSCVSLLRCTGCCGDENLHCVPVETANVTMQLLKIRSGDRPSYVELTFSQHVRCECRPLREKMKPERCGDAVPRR

[3] = target: T2, human PlGF-1 comprising amino acids 1-137 produced in human embryonic kidney cells (human, UniProt P49763 19-221); assay: as above
T2 construct: Mature human PlGF-1 with 6xHis tag; also called HEK (1-137); full length HEK human PlGF-1 (1-137)
T2 sequence: T1 sequence

[4] = target: T3, CHO human PlGF-1 fragment (comprising amino acids 17-131; ATCC PTA-8540) (human, UniProt P49763 35-221); assay: as above
T3 sequence: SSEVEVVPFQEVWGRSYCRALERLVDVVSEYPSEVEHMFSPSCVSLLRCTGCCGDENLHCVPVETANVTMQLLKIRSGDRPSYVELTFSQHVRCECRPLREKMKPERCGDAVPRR

[5] = target: T4, human PlGF-1 fragment (comprising amino acids 17-131) produced in human embryonic kidney cells (human, UniProt P49763 35-221); assay: as above
T4 sequence: T3 sequence

RLU [1]: 14300 RLU
B1: monoclonal antibody 1-255-713 (produced by murine hybridoma cell line 1-255-713, ATCC PTA-8536) (antibody, mouse IgG2a, V domains shown)
VH: QVHLQQSGAELMKPGASVKISCKATGYTFSSYWIEWVKQRPGHGLEWIGEILPGSVSNNFNEKFKDKATLTADPSSNTAYIQVSSLTSEDSAVYYCARSTGFYYGGNYFDHWGQGTTLAVSS
VL: DVVMTQTPLSLPVSPGDQASISCRSSQSLVHSNGHTYLHWYLQKPGQSPKLLIYKVSNRFSGVPDRVSGSGSGTDFTLKISRVEAEDLGVYFCSQSTHVPPTFGGGTKLEIKR
notes: also called MAb255

RLU [2]: 180000 RLU
RLU [3]: 423000 RLU
RLU [4]: 239000 RLU
RLU [5]: 336000 RLU
B2: monoclonal antibody 2-826-335 (produced by murine hybridoma cell line 2-826-335, ATCC PTA-8539) (antibody, mouse IgG1, V domains shown)
VH: QVQLKQSGPGLVQPSQSLSITCTVSGFSLTTYGIHWVRQSPGKGLEWLGVMWSGGDTDYDAAFISRLSISKDNSKSQVFFKMNSLQANDTGIYYCARYRFYGMDYWGQGTSVTVSS
VL: AIQMTQSSSSFSVSLGDRVTITCKASEDIYNRFAWYQQKPGNAPRLLISGAASLEAGVPSRFSGSGSGQDYTLSITSLQTEDVATYYCQQYWSTPWTFGGGTKLEIKR
notes: also called MAb826
